In a protein production outcome set (Wang et al. 2014):

Assay: label from the status in PepcDB records

| Sequence | protein production |
| --- | --- |
| MKAKAILLASVLLVGCQTSQNTGNVQQHAQSLSAAGQGEAGKFTSQARWMDDGTSIAPDQDLWAFIGDELKMGIPENSRIREQKQKYLRNKSYLHDVTLRAEPYMYWIAGQVKKRNMPMELVLLPIVESAFDPHATSGANAAGIWQIIPSTGRNYGLKQTRNYDARRDVVASTTAALDMMQRLNKMFDGDWLLTVAAYNSGEGRVMRAIKANKARGKPTDFWSLSLPRETKLYVPKMLALSEILKNSKRYGVRLPTTDESRALARVRLNSPVEMAQVADMAGMSISKLKTFNAGVKGSTLGVSGPQYVMVPKKHAEQLRESLASGEIDAVQSQLIADNTPLNSRSYKVRSGDTLSGIASRLGVSTKDLQQWNNLRGSRLKIGQSLTVGAGSSAQRLANNSDSITYRVRKGDSLSSIARRHGVNIKDVMRWNHDTDNLQPGDQLTLFVKDNSTPDSLEHHHHHH | not failed |
| MQENPSSSPFERRMESYQTQDSNDLHQLWRPREEDLEKLYRVPLGLTNEQLVEKLQLFSGEGEEKTLFVWVNRDLLGYRFLFWLTGMVLKEKQDGDVEHANKLEIIRDWVIESVVKIDRFLVRRVKQAEEKLKSLIQDYDSFKTSPEKKLLQITGQSEMDFVCLWVVVYTAVIAWKLRAAQTESSATHPSSIVVSECRHLLEQKDVFQRKTPKGLKLVAQLFDRSIEELNPRLKTLGDTDIREIGRLMTILELLPADPYRLLCRIACNLYDGAILLQYGVENYQIGSVRFGLDPYSFDSESKIPKLNNPFITIGK | failed |
| MNHPYRWVIVAAGGVLGCVAAGAMFSLPVLIRPMSQDTGWSVTGISTAMTIGFLAMAAASMVWGNLSDRFGPRPVVLTGSVVLAASLALGSRATSLIEFQLLFGALVGAATAAVFAPMMACVTGWFDTGRGLAVSLVSAGMGMAPLTMAPLAAWLVTIHDWRGAMLIISAITAALMIPAALLVRRPPALEPGGAEGAWADAQDDMTLRQAVRSPQFVTLLLANFFCCATHSGPIFHTVSYAVTCGIPMIAATSIYSVEGLSGMFGRLGFGLAGDRFGAQRVLVIGLLAQAFGVLAYAFVGGLGGFYAVAVAVGFIYAGTMPLYAVIIRENFPLRMMGTIVGGTAMAGSLGMSTGPVLGGLIYDAYDSYAPMYVASCGMGLAAMLILATFRPFPQRRGELAVA | failed |
| MATIRKLRGRWQAQVRRRGVPPRAKSFDTKTAAERWARDLEAEADRSGWVADTRAAEKTTLGELLSRYANEVTPAKRGAVSEKARINSIVRCPISHRTLAKLTSSDVAGYRDERLKTVAPATVVRELNTISHAIEVATREWGLWVPRNPVKLVRRPPVPRGRTRRLKEGEEQRLLDACDRGRTPLLKPLIILAIETGMRRGELLDLRWEHIDLKRGVAHLPLTKNGDSRDVPLSCRAVQTLQELRSAGVRHDRVFSMTGNSVRLAFEHLRVRAGMSDLHFHDLRHEAISRLFEKGLNIAEVSAISGHRELKMLQRYTHLRAVDLVARLG | failed |
| ATDSATAAPAAAATTQVQKEAADVLQVAVQGANAMRDIQFARLALFHGQPDSAKKLTDDAAALLAADDASWAKFVKTDAKAKMIADRYVIINASIALSEDYVATPEKESAIQSANEKLAKGDQKGAIDTLRLAGIGVIENQYLMPLNQTRKAVAQSQELLKAGKYYEANLVLKGAEEGIVVDSEMLVAGN | not failed |
| MRLNQISKFAIVSVVVLVLALLLGGSAKTNLTVEEVNKALEPFFDSLSYILNYYYEADKLDINKLIDHAIDGLVKGTGDDFSYYQDPETYRENQIEMKGEYGGLGIEVTYDAEHGAIKVVAPMYGTPAWRAGLKAGDLIITIDGTPVSKMTYMEAVNNLRGEPGTSVTIEVLRDGEKLTFTIVREKIEIKMVLYSFIETEKGSIGYVRITRFGEKADSDMKNALDKIFEKGVKGLIIDVRDNPGGYLDVALKIVSMFVDKGVILKVRNGFGEEDVYESYGNSYPNVPIVLLVNEGSASASEILTGALKDLGIATVVGRKTFGKGSVQTGFPLSNGGVLFLTTAHYLTPSGKDIHKIGIEPDVLVEESVEEELHAETREQIEVDPEKDPFVKKGLEVLLEKIK | failed |
| MSRLFHQRGNVMPIHVITALPGGGKTAIMVEMLEAEAKIGARPLFAAGIDGLQPGLATVLDDPSQWNAKDAHGNYVVPDGSLVFVDEAWKWFGMKYGGSGMRQTTPDHVRALAEHRHRGLDFVWTTQQAHKQLYSFVHGLIGRHTFIKRRFGTRFLDVWEWDEMVENVNSASNREFSRHQVRTLPKHVYSLYKSAEIHT | failed |
| NAQARFSQNLLDQGSHPTSEKLLSVLRPASGHVADALGITEGENVIHLRTLRRVNGVALCLIDHYFADLTLWPTLQRFDSGSLHDFLREQTGIALRRSQTRISARRAQAKECQRLEIPNMSPLLCVRTLNHRDGESSPAEYSVSLTRADMIEFTMEH | not failed |
| MDGKRVWLSDDELTRFIEQAETPHQRLAFLLAGRVGLRRSEIIEVCPQDLVDGPTGDHIRVWESYAKRDKYREPPVPQEVVTIAETLAYQQDDDEPLLDVAGSTVYRWVRRAADELEEETGDRGWQYLDVHDLRRTWGTYLLEQGVIPSVVMSFGGWEDWDTFRKHYLGLEHHHHHH | failed |
| MKIIAFYLPQFHQIKENDRWWGKGFTEWTNTKSAQPLFSGHYQPREPYQDFYYDLTTPSVRKWQAEIAKAYGIYGFCYYHYWFKGKRLLETPFNEVLKMKEPDFPFCLSWANEPWTKSWDGLDKHILMPQDYGDISDWKEHFDYLLQAFQDERYIYIDDKPLFIIYRPGHIPDCEKMLNYWNALARANGLKGIYFAETLNSFPLPNINGFDASIQFEPFYTIAHDSSSDINKVIYDSDMQLNVWDYDKVWMYILQRSLPKKKTFPGAFVDWDNTARRKNANSSIFVGSTPEKFTIYLSKQIHRTYSFYNSEFLFINAWNEWAEGTYLEPDKKYGFSYLEGVKNAIDRGMKAYKKDESFLEHHHHHH | not failed |
| MTMKETFTLVATAAAGLEAVVGRELRELGYETQVENGKVRFQGDVRAIAETNLWLRAADRIKIVVGEFPARTFEELFQGVFALDWENYLPLGAKFPISKAKCVKSKLRNEPSVQAISKKAVVKKLQKYFHRPEGVPLQETGAEFKIEVSILKDKATVLIDTTGASLFKRGYRTDKGGAPIKENMAAAILELSNWYPDKPLIDPTCGSGTFCIEAAMIGMNIAPGFNRDFAFEAWNWVGKDLVQSVRDEADSKANYDVALDIMGCDIDSRMVEIAKANAREAGLEDVVKFKQMRLQDLKTDKINGVIISNPPYGERLLDDKAVDILYNEMGQTFAPLKTWSKFILTSDEQFESKYGMKADKKRKLYNGTLRVDLYQYFGERVRRSEARKVN | failed |
| MKMKSKTKSCCQYTQWVVLALLTLIFASCKDNDDATGDFDPNKPVVISEFSPKEGGLGTRMLLYGENFGSDISKIKVTIGGQDSKVVGAKGKSLYCVVPAKAYDGDIKLSILNDEGEEIANTEANEKFVYQKKMLVTTFLGTMYDGNTKYDLKDGPFDDCGGFGGAVWLSFDPKNHNHLYLVGEQHPTRLIDFEKEYVSTVYSGLSKVRTICWTHEADSMIITNDQNNNDRPNNYILTRESGFKVITELTKGQNCNGAETHPINGELYFNSWNAGQVFRYDFTTQETTPLFTIQDSGWEFHIQFHPSGNYAYIVVVNQHYILRSDYDWKTKRLTTPYIVCGQQGAKDWVDGVGKKARMHAPRQGTFVKNPAYKGSSDEYDFYFCDRENHCIRILTPQGRVTTFAGRGSNGTSGYNDGDLRQEARFNHPEGIVYDEERECFFIGDRENRRIRKIGYEE | failed |
| MMRVGIIGAGNIGHMHAEAVAACENTLLTGVFDLDRERAQSLARASGTVAFASPDELYKASDGVVVASPNRTHADYAREAVAYGRSVLCEKPMAVSLLQAADMRALAAVAPGVCAVGFNYRYLNVIREARNRIGEGMLGRVVHVDVAFKRASALTRQHFTWRDSAAEGHTSGALGDLGVHLIDMLHHLFRSPVDLASCQVALRTKVAAKGGHAVEVDDHAFVSGRIEGGPSFTLTASKASQPEETGFTLAAMGSRGDLSHDSQDGPVLHLRTGIDWEQVKLLGPSRLDDPRGEVTGWGDSFLDQLHDWAGAVTASQRSGTLADFEDGYQAQQVLQELLRIGGRM | failed |
| MLQVPKLTIIMPVYNTAQYLPRAFDALLKQIDKSFKLIVVDDGSTDNSVEVAQNYAYRFPYFKLIKKKNGGPSDARNVGMQYIDTPYVTFHDGDDWVDPGYTSFFIRAFEEHPDVNLVSCGYWMDYPDKKSRVVGRPEGGFLTRGETYLKLTNVFGSPMKGYSWNKAYKTAIIKKFHLQFDRDISLLEDQIFNVKYISVAKGVYYTQRPYYHYWQRKGSIIHQPNVKKVADNFRGNYRVWRRIIKTMLKDHEDEKMRKKLDRSPLRDSDVQ | failed |
| QADAGPDKELTLPVDSTTLDGSKSSDDQKIISYLWEKTQGPDGVQLENANSSVATVTGLQVGTYVFTLTVKDERNLQSQSSVNVIVKEE | not failed |
| MAGGYGVRSPGPCVQCLARPMTTPFWPGRERCASLASRDAFAARLFKRQKMESFLVSTGIVALAEMGDKTQLLSLVLAARYRKPIPIILGILIATLVNHGFAGALGGWITGMVGVDLLRWILGLGFIAMAGWMLIPDKLDDAEEAKPVKGALGILGTTIIAFFFAEMGDKTQIATVALAARFHGEVIAVVAGTTFGMMLANAPAVLLGDRFANKMPIALVHKIAAAIFLVLGLLALFNVGG | failed |
| MFQIIGIVLLFAMVFGSYIMAGGKMDVIIHAAPHELMAIGGAGVAAFLIGNSVTVIKATLGGFGTIFKGPKWKAQDYRDLLSLLFLLTKTMKSKGVIALEAHIEKPHESTIFSRYPKIAHDHFAVDFICDTLRMMTMNLEDPHQVEDAMEKQLEKHHHEAHGAAHALTQLSDGLPALGIVAAVLGVIKTMGSITEPPAVLGTMIGGALVGTFMGVFMAYGLVGPMATRLGGVLDEDHNFYKIIQAVLVAHLHGNAAQISVEIGRGNVPSAYQPSFAELEEALSQMPNE | failed |
| MPQVDPELFDRGQFQAELALKSSPIAAFKKAIRQFREVLDNRFNSGRDIRRLIEDRAWCVDQILQQAWQRFDWGDDADIALVAVGGYGRGELHPYSDVDLLILLDSEDQESFREPIEGFLTLLWDIGLEVGQSVRSVQQCAEEARADLTVITTLMECRTICGPDSLRQRMLQVTGSAHMWPSKEFFLAKRHEQQRRHAKYNDTEYNLEPNVKGSPGGLRDIQTILWMARRQFGSLNLHALVREGFLVESECSMLASSQEFLWRVRYALHMLAGRAEDRLLFDHQRSIARLFGYEDNDVKLAVERFMQKYYRVVMAISELNDLIIQHFEEVILPCEQPVQIQPLNSRFQLRDGYIEVTHPNVFKRTPFALLEIFVLMAQHPEIKGVRADTIRLLRDSRHLIDDEFRHDIRNTSLFIELFKSSQGIHRNLRRMNRYGILGRYLPEFGHIIGQMQHDLFHIYTVDAHTLNLIKHLRKLNRPEMAEKYPLASKIIDRLPKPELIYIAGLYHDIAKGRGGDHSELGAVDAEAFCQSHQLPLWDTQLVSWLVQNHLVMSTTAQRKDLSDPQVIFDFAQLVGDQTHLDYLYVLTVADINATNPTLWNSWRASLLRQLYTETKRALRRGLENPVDREEQIRQTQTAALDQLVRNGIDQDDAEQLWSQLGDDYFLRHTAGDVAWHTEAILQHPDDGTPLVLIKETTQREFESGSQIFIYAADQHDFFAVTVAAMDQLNLSIQDARIITSTSQFTLDTYIVLDADGDSIGNNPERIAEIREGLIDALKNPDDYPTIIQRRVPRQLKHFAFAPQVTISTDALRQVSVLEVIAPDRPGLLARIGGIFLDFDLSVQNAKIATLGERVEDVFYITDARNQPLADPDLCKRLQAALVEQLSQDNGRDT | failed |
